Results on 14 variants are retold here after IntAct's records for PubMed 22491013.

To fix the notation:
B1: Low-density lipoprotein receptor-related protein 6 (Homo sapiens), O75581 (parent)
chain: MGAVLRSLLACSFCVLLRAAPLLLYANRRDLRLVDATNGKENATIVVGGLEDAAAVDFVFSHGLIYWSDVSEEAIKRTEFNKTESVQNVVVSGLLSPDGLACDWLGEKLYWTDSETNRIEVSNLDGSLRKVLFWQELDQPRAIALDPSSGFMYWTDWGEVPKIERAGMDGSSRFIIINSEIYWPNGLTLDYEEQKLYWADAKLNFIHKSNLDGTNRQAVVKGSLPHPFALTLFEDILYWTDWSTHSILACNKYTGEGLREIHSDIFSPMDIHAFSQQRQPNATNPCGIDNGGCSHLCLMSPVKPFYQCACPTGVKLLENGKTCKDGATELLLLARRTDLRRISLDTPDFTDIVLQLEDIRHAIAIDYDPVEGYIYWTDDEVRAIRRSFIDGSGSQFVVTAQIAHPDGIAVDWVARNLYWTDTGTDRIEVTRLNGTMRKILISEDLEEPRAIVLDPMVGYMYWTDWGEIPKIERAALDGSDRVVLVNTSLGWPNGLALDYDEGKIYWGDAKTDKIEVMNTDGTGRRVLVEDKIPHIFGFTLLGDYVYWTDWQRRSIERVHKRSAEREVIIDQLPDLMGLKATNVHRVIGSNPCAEENGGCSHLCLYRPQGLRCACPIGFELISDMKTCIVPEAFLLFSRRADIRRISLETNNNNVAIPLTGVKEASALDFDVTDNRIYWTDISLKTISRAFMNGSALEHVVEFGLDYPEGMAVDWLGKNLYWADTGTNRIEVSKLDGQHRQVLVWKDLDSPRALALDPAEGFMYWTEWGGKPKIDRAAMDGSERTTLVPNVGRANGLTIDYAKRRLYWTDLDTNLIESSNMLGLNREVIADDLPHPFGLTQYQDYIYWTDWSRRSIERANKTSGQNRTIIQGHLDYVMDILVFHSSRQSGWNECASSNGHCSHLCLAVPVGGFVCGCPAHYSLNADNRTCSAPTTFLLFSQKSAINRMVIDEQQSPDIILPIHSLRNVRAIDYDPLDKQLYWIDSRQNMIRKAQEDGSQGFTVVVSSVPSQNLEIQPYDLSIDIYSRYIYWTCEATNVINVTRLDGRSVGVVLKGEQDRPRAVVVNPEKGYMYFTNLQERSPKIERAALDGTEREVLFFSGLSKPIALALDSRLGKLFWADSDLRRIESSDLSGANRIVLEDSNILQPVGLTVFENWLYWIDKQQQMIEKIDMTGREGRTKVQARIAQLSDIHAVKELNLQEYRQHPCAQDNGGCSHICLVKGDGTTRCSCPMHLVLLQDELSCGEPPTCSPQQFTCFTGEIDCIPVAWRCDGFTECEDHSDELNCPVCSESQFQCASGQCIDGALRCNGDANCQDKSDEKNCEVLCLIDQFRCANGQCIGKHKKCDHNVDCSDKSDELDCYPTEEPAPQATNTVGSVIGVIVTIFVSGTVYFICQRMLCPRMKGDGETMTNDYVVHGPASVPLGYVPHPSSLSGSLPGMSRGKSMISSLSIMGGSSGPPYDRAHVTGASSSSSSSTKGTYFPAILNPPPSPATERSHYTMEFGYSSNSPSTHRSYSYRPYSYRHFAPPTTPCSTDVCDSDYAPSRRMTSVATAKGYTSDLNYDSEPVPPPPTPRSQYLSAEENYESCPPSPYTERSYSHHLYPPPPSPCTDSS
partner: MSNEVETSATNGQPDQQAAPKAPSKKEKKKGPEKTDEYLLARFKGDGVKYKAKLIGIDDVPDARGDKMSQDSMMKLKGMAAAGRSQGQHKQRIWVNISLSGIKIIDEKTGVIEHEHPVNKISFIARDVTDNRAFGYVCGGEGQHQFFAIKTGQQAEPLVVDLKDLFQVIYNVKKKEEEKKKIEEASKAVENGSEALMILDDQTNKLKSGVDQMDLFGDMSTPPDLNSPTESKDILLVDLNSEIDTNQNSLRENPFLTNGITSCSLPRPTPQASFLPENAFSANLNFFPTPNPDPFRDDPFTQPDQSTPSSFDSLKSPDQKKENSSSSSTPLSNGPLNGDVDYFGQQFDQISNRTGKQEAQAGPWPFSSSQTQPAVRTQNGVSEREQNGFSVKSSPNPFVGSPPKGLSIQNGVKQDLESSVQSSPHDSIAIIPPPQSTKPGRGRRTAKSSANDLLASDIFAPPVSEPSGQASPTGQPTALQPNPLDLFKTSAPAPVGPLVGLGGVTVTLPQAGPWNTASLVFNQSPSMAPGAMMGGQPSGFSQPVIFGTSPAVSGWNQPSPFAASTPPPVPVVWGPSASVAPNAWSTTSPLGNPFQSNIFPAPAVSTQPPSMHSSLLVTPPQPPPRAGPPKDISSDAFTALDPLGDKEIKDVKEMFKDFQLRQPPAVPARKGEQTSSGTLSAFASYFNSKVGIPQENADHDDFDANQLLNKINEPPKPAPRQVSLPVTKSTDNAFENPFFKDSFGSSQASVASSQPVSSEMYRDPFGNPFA

The variants in one experiment derive from B1. Particulars: with dab2_human DAB2, P98082.
With S1579A, the “effect of a mutation on the interaction” value is “disrupting interaction”.

In a further experiment the parent is B1. The following applies: with dab2_human DAB2, P98082. The source holds these as a separate data set.
In the case of S1598A, the “effect of a mutation on the interaction” value was “increasing interaction”.

In another experiment the parent is B1. The following applies: with dab2_human DAB2, P98082. This is another data set of the same source.
For the variant S1575A, the “effect of a mutation on the interaction” value was “decreasing interaction”.

Another experiment covers variants of B1. Particulars: with dab2_human DAB2, P98082. The source holds these as a separate data set.
For the variant T1593A, the “effect of a mutation on the interaction” value is on record as “decreasing interaction”.

In another experiment the parent is B1. Particulars: with dab2_human DAB2, P98082. The source holds these as a separate data set.
T1610A: the “effect of a mutation on the interaction” value is “decreasing interaction”.

In another experiment the parent is B1. Particulars: with dab2_human DAB2, P98082. The source holds these as a separate data set.
With T1572A, the “effect of a mutation on the interaction” value is given as “decreasing interaction”.

In a further experiment the parent is B1. The following applies: with dab2_human DAB2, P98082. The source holds these as a separate data set.
With S1590A, the “effect of a mutation on the interaction” value is recorded as “decreasing interaction”.

The variants in another experiment derive from B1. The following applies: with dab2_human DAB2, P98082. This is another data set of the same source.
As to Y1584A, the “effect of a mutation on the interaction” value is given as “decreasing interaction”.

The variants in another experiment derive from B1. Particulars: with dab2_human DAB2, P98082. This is another data set of the same source.
In the case of S1596A, the “effect of a mutation on the interaction” value was “decreasing interaction”.

Variants of B1 are the subject of another experiment. Particulars: with dab2_human DAB2, P98082. This is another data set of the same source.
As for S1586A, the “effect of a mutation on the interaction” value is listed as “decreasing interaction”.

A further experiment covers variants of B1. The following applies: with dab2_human DAB2, P98082. This is another data set of the same source.
As for Y1592A, the “effect of a mutation on the interaction” value is “decreasing interaction”.

A further experiment covers variants of B1. Particulars: with dab2_human DAB2, P98082. The source holds these as a separate data set.
Take S1613A: the “effect of a mutation on the interaction” value is listed as “increasing interaction”.

The variants in the next experiment derive from B1. The following applies: with dab2_human DAB2, P98082. This is another data set of the same source.
On to S1607A, for which the “effect of a mutation on the interaction” value is “decreasing interaction”.

A further experiment covers variants of B1. The following applies: with dab2_human DAB2, P98082. This is another data set of the same source.
As to Y1577A, the “effect of a mutation on the interaction” value is “decreasing interaction”.
